Measurements published in PMC4159350, “Structure of the N-Terminal Gyrase B Fragment in Complex with ADP⋅Pi Reveals Rigid-Body Motion Induced by ATP Hydrolysis” (PLoS ONE, 2014).

Biological target: the molecule itself
Assay: crystal structure; GyrB43 incubated with a 15 fold molar excess of ATP and MgCl2 (hydrolysed to ADP.Pi), 50 mM Na-phosphate buffer; sitting drop, 20°C, 0.1 M tri-ammonium citrate pH 6.5, 25% PEG 2000; space group C2221, 1.8 Å; dimer by the crystallographic dyad

B1: 43 kDa N-terminal fragment of GyrB from E. coli (GyrB43) (domain or fragment)
chain: not shown
notes: DNA gyrase subunit B (GyrB), E. coli, residues 1-392, comprising the ATPase domain (20-220) and the transducer domain (221-392); amplified from E. coli genomic DNA; By the forward primer the His6 codons follow the start ATG and are followed by the codons of S2, N3, S4, Y5; No removal of the tag is described; The dimer is formed by a crystallographic two-fold axis (one monomer per asymmetric …)
  binding result: binds
